B1: SEQ ID NO 309 (peptide)
peptide: YPIKPEAPGEDASPEELAQYAADLRRYINMLTRPRY
modifications: not checked
B2: SEQ ID NO 321 (peptide)
peptide: B1 peptide with R25K, P34Q
modifications: not checked
B3: SEQ ID NO 341 (peptide)
peptide: B1 peptide with E15Q, P34Q
modifications: not checked
B4: SEQ ID NO 318 (peptide)
peptide: B1 peptide with P2A, P34Q
modifications: not checked
B5: SEQ ID NO 347 (peptide)
peptide: B1 peptide with D23E, N29Q, P34Q
modifications: not checked
B6: SEQ ID NO 316 (peptide)
peptide: B1 peptide with A18N, P34Q
modifications: not checked
B7: SEQ ID NO 317 (peptide)
peptide: B1 peptide with A18N, D23S, P34Q
modifications: not checked
B8: SEQ ID NO 335 (peptide)
peptide: B1 peptide with P8G, G9P, P34Q
modifications: not checked
B9: SEQ ID NO 342 (peptide)
peptide: B1 peptide with E15D, P34Q
modifications: not checked
B10: SEQ ID NO 332 (peptide)
peptide: B1 peptide with K4R, P34Q
modifications: not checked
B11: SEQ ID NO 203 (peptide)
peptide: ASLRHYLNLVTRQRY
modifications: not checked
B12: SEQ ID NO 288 (peptide)
peptide: APLEPVYPGDNATPEQMNRYYASLRHFLNLVTRQRY
modifications: not checked
B13: SEQ ID NO 296 (peptide)
peptide: B12 peptide with Q16E, M17L, F27Y
modifications: not checked
B14: SEQ ID NO 293 (peptide)
peptide: B12 peptide with R19K, F27Y
modifications: not checked
B15: SEQ ID NO 308 (peptide)
peptide: B12 peptide with H26A, F27Y
modifications: not checked
B16: SEQ ID NO 289 (peptide)
peptide: B12 peptide with F27Y, V31A, T32P
modifications: not checked
B17: SEQ ID NO 297 (peptide)
peptide: B12 peptide with T13S, Q16E, M17L, F27Y
modifications: not checked
B18: SEQ ID NO 306 (peptide)
peptide: B12 peptide with R19K, F27Y
modifications: not checked
B19: SEQ ID NO 295 (peptide)
peptide: B12 peptide with M17L, F27Y
modifications: not checked
B20: SEQ ID NO 310 (peptide)
peptide: IKPEAPGEDASPEELAQYAADLRRYINMLTRPRY
modifications: not checked
B21: SEQ ID NO 202 (peptide)
peptide: ASLRHYLNLVTRQRY
modifications: not checked
B22: SEQ ID NO: 177 (peptide)
peptide: EELNRYYASLRHYLNLVTRQRY
modifications: not checked
B23: SEQ ID NO: 178 (peptide)
peptide: YYASLRHYLNLVTRQRY
modifications: not checked
B24: PYY(1-4)Aca(16-36) (peptide)
peptide: YPIK[Ahx]ELNRYYASLRHYLNLVTRQRY
modifications: ends and bridges not checked
B25: SEQ ID NO: 179 (peptide)
peptide: RHYLNLVTRQRY
modifications: not checked
B26: PP (human pancreatic polypeptide) (peptide)
peptide: APLEPVYPGDNATPEQMAQYAADLRRYINMLTRPRY
modifications: not checked

Numbering of substitutions follows the chain as printed. Square brackets hold non-standard residues; d marks the D form. Ends that are not written are not given here. Ahx = NCCCCCC(=O)O

The first assay addresses neuropeptide Y4 receptor. The assay can be described thus: radioligand competition, [125I]-hPP, Y4/CHO-K1 membranes.
For the molecule B1, the Y4 RBA is 5.6 nM.
B2: the Y4 RBA came out at 57 nM.
B3 yielded a Y4 RBA of 11 nM.
As for B4, the Y4 RBA worked out at 84 nM.
On to B5, for which the Y4 RBA was found to be 740 nM.
In the case of B6, the Y4 RBA came out at 52 nM.
On the same count and under the same terms, to B7 belongs 16 nM; to B8, 109 nM.
B9 gave a Y4 RBA of 84 nM.
Regarding B10, the Y4 RBA is 38 nM.
Consider B11, for which the Y4 RBA amounted to 108 nM.
B12 returned a Y4 RBA of 11 nM.
The same measure, in the same setting: to B13 belongs 2.9 nM; to B14, 0.87 nM; to B15, 2.1 nM.
As for B16, the Y4 RBA was 48 nM.
Turning to B17, the Y4 RBA stood at 4 nM.
In turn, B18 had a Y4 RBA of 1.2 nM.
With B19, the Y4 RBA turned out to be 1 nM.
On the same count and under the same terms, to B20 belongs 27 nM; to B21, 23 nM.

Another assay concerns the target T1, neuropeptide Y1 receptor, P25929.
T1 chain: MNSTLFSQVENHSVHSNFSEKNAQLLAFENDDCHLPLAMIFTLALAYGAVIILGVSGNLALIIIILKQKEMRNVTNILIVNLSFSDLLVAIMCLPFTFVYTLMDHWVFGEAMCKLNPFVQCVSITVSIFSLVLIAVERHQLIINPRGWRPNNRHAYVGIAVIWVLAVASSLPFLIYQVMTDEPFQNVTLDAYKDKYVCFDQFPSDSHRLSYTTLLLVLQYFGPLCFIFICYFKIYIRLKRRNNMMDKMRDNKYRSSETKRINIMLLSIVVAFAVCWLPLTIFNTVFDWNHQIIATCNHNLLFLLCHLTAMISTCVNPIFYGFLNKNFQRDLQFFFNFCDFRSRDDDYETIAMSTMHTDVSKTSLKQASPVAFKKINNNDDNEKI
The assay can be described thus: radioligand competition, [125I]-hPYY, SK-N-MC membranes.
B1 returned a Y1RBA of 3.3 nM.
On to B2, for which the Y1RBA is 12 nM.
Molecule B3 yielded a Y1RBA of 1.8 nM.
B4 had a Y1RBA of 100 nM.
Consider B5, for which the Y1RBA was found to be 35 nM.
In the case of B6, the Y1RBA amounted to 7.1 nM.
B7 displayed a Y1RBA of 4.3 nM.
B8 displayed a Y1RBA of 34 nM.
For the molecule B9, the Y1RBA was found to be 15 nM.
Molecule B10 came in with a Y1RBA of 13 nM.
B12 had a Y1RBA of 1.8 nM.
The same measure, in the same setting: to B13 belongs 2.7 nM; to B14, 0.82 nM; to B15, 1 nM.
As for B17, the Y1RBA stood at 3.6 nM.
B18 returned a Y1RBA of 0.6 nM.
With B19, the Y1RBA was found to be 1 nM.
For B20, the Y1RBA is 29 nM.

For the next assay the target is unchanged. The assay can be described thus: competition vs [125I]-hPYY, SK-N-MC membranes.
The molecule B22 registered a Y1RBA of 5.8 nM.
In the case of B23, the Y1RBA worked out at 7.7 nM.
Same read-out and setting: to B24 belongs 4.4 nM.

A further assay deals with T2, neuropeptide Y2 receptor, P49146.
T2 chain: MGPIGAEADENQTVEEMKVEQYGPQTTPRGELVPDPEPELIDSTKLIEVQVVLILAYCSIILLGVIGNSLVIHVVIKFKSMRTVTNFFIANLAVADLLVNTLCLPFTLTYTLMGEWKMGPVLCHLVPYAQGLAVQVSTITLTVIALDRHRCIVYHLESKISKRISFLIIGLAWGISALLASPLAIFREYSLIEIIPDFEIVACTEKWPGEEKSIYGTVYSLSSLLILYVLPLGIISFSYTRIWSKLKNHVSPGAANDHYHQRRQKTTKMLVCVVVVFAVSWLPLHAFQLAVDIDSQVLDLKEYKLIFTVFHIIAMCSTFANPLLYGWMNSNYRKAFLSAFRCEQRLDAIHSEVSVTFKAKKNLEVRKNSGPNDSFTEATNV
The assay is described as follows: radioligand competition, [125I]-hPYY, SK-N-BE membranes.
B1 displayed a Y2RBA of 78 nM.
Regarding B2, the Y2RBA was determined as 3.7 nM.
B3: the Y2RBA is 0.15 nM.
On to B4, for which the Y2RBA stood at 1.3 nM.
Same read-out and setting: to B5 belongs 18 nM; to B6, 0.63 nM.
For the molecule B7, the Y2RBA was 0.097 nM.
On to B8, for which the Y2RBA worked out at 0.72 nM.
B9 gave a Y2RBA of 0.62 nM.
B10 came in with a Y2RBA of 0.54 nM.
Consider B12, for which the Y2RBA stood at 0.35 nM.
Turning to B13, the Y2RBA was found to be 0.76 nM.
As to B14, the Y2RBA is 0.18 nM.
For B15, the Y2RBA is 0.56 nM.
Still for that read-out and setting: to B17 belongs 0.32 nM.
As to B18, the Y2RBA is 0.16 nM.
The same measure, in the same setting: to B19 belongs 0.18 nM; to B20, 454 nM.

Another assay has as its target T3, neuropeptide Y5 receptor (Homo sapiens (Human)), Q15761.
T3 chain: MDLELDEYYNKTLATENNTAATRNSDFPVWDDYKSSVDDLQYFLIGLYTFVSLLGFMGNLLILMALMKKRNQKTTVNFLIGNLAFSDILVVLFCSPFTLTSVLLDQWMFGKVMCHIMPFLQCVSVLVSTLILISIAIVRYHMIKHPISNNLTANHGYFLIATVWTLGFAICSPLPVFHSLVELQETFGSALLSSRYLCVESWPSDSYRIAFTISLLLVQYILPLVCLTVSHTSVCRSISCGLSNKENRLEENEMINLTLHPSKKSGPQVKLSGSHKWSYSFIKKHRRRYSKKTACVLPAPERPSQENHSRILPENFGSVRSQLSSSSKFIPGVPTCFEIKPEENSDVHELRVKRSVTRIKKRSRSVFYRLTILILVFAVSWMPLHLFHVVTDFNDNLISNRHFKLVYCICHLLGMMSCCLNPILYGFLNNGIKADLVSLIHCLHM
The assay is described as follows: radioligand competition, [125I]-hPYY, Y5/CHO-K1 membranes.
As to B1, the Y5RBA amounted to 1.5 nM.
On the same count and under the same terms, to B2 belongs 5.6 nM; to B3, 0.3 nM; to B4, 1.9 nM.
Same read-out and setting: to B5 belongs 51 nM.
Take B6: the Y5RBA came to 1.1 nM.
B7 had a Y5RBA of 0.69 nM.
The molecule B8 showed a Y5RBA of 3.6 nM.
Still for that read-out and setting: to B9 belongs 1.4 nM; to B10, 1 nM; to B12, 1.1 nM.
As to B13, the Y5RBA is 2.1 nM.
Regarding B14, the Y5RBA was determined as 0.48 nM.
As to B15, the Y5RBA was determined as 1.4 nM.
With B16, the Y5RBA turned out to be 0.83 nM.
With B17, the Y5RBA amounted to 1.8 nM.
On the same count and under the same terms, to B18 belongs 0.27 nM.
B19 returned a Y5RBA of 0.63 nM.
As to B20, the Y5RBA was 5.1 nM.

For another assay, the target named is neuropeptide Y4 receptor. The assay can be described thus: competition vs [125I]-hPP, Y4-transfected CHO-K1 membranes.
Sequence of neuropeptide Y4 receptor (P50391 whole entry): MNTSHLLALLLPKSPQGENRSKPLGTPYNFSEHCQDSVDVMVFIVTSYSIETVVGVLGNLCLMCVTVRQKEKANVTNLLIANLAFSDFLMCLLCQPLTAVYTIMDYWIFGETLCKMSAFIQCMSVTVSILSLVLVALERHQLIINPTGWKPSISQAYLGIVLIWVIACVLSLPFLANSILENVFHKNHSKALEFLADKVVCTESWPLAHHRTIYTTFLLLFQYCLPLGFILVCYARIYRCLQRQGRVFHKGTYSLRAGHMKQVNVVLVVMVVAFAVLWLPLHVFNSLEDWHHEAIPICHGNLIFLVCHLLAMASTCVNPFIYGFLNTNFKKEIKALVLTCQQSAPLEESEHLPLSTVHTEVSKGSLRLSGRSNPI
B22 gave a Y4 RBA of 46 nM.
In turn, B23 returned a Y4 RBA of 38 nM.
On the same count and under the same terms, to B24 belongs 65 nM; to B25, 33 nM.
On the same count and under the same terms, to B26 belongs 0.034 nM.

The target of another assay is T2, neuropeptide Y2 receptor, P49146. The assay can be described thus: competition vs [125I]-hPYY, SK-N-BE membranes.
B22 gave a Y2RBA of 0.34 nM.
In the case of B23, the Y2RBA was determined as 0.29 nM.
Consider B24, for which the Y2RBA was 0.21 nM.

The next assay has as its target T3, neuropeptide Y5 receptor (Homo sapiens …). The assay can be described thus: competition vs [125I]-hPYY, Y5-transfected CHO-K1 membranes.
With B22, the Y5RBA was determined as 11 nM.
B23: the Y5RBA came out at 17 nM.
On the same count and under the same terms, to B24 belongs 5.8 nM.

The values are drawn from patent publication US20100099619A1.
